From paper PMC11853025

Experiments:
iC3b [1] = molecular target: iC3b (UniProt P01024); assay: SPR; C3b deposited on a CM5 chip (amine-coupled seed, then convertase-mediated deposition to about 5000 RU), iC3b and C3dg made from it on the chip; αI domains injected as dilution series, 120 s; Biacore T200, 25 °C; HBST (10 mM HEPES, 150 mM NaCl, 0.005% Tween-20, pH 7.4) with 1 mM MgCl2; Langmuir 1:1 fit, KD calculated
iC3b [2] = molecular target: iC3b (UniProt P01024); assay: SPR; competitive: αI domains at 5 µM preincubated with simvastatin (3-100 µM), injected over immobilised iC3b or ICAM-1; HBST with 1 mM MgCl2 and 5% DMSO; signal as percent of the non-inhibited signal
[3] = molecular target: ICAM-1 (recombinant, Sino Biological 10346-H03H) (UniProt P05362); assay: as above
Sequence of ICAM-1 (recombinant, Sino Biological 10346-H03H) (P05362 28-480): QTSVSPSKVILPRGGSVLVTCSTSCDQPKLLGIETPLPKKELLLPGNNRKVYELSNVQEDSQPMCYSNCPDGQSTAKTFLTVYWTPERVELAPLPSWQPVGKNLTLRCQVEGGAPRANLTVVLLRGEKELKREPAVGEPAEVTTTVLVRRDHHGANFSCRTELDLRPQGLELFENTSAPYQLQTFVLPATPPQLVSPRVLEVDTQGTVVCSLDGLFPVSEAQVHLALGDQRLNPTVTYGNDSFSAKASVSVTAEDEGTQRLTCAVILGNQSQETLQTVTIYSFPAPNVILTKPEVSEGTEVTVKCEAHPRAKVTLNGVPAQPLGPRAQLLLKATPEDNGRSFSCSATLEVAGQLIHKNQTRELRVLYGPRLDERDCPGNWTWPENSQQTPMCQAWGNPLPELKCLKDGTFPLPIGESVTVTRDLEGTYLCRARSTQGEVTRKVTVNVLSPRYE

Substance | Kd (iC3b [1]) [µM] | residual binding activity with simvastatin (percent of the non-inhibited signal) (iC3b [2]) [%] | residual binding activity with simvastatin (percent of the non-inhibited signal) [3] [%]
CR3 αMI domain, wild type (WT) (from UniProt P11215 146-334) (domain or fragment) | 15 |  | 
CR3 αMI domain, high-affinity (HA) variant p.I332G (from UniProt P11215 146-334) (domain or fragment) | 1.8 | 77 | 
LFA-1 αLI domain, high-affinity (HA) variant p.K312C/K319C (domain or fragment) |  |  | 83
